Laboratory results published in US20210063414A1, “METHODS FOR PREVENTING AND/OR TREATING BONE LOSS CONDITIONS BY MODULATING IRISIN” (Dana-Farber Cancer Institute, Inc., priority 2018, published 2021).

Molecular target: T1, MLO-Y4 cell surface proteins (Mus musculus, UniProt Q3U2P1)
T1 construct: endogenous in cells; host or cells: MLO-Y4
T1 sequence (Q3U2P1 1-1090): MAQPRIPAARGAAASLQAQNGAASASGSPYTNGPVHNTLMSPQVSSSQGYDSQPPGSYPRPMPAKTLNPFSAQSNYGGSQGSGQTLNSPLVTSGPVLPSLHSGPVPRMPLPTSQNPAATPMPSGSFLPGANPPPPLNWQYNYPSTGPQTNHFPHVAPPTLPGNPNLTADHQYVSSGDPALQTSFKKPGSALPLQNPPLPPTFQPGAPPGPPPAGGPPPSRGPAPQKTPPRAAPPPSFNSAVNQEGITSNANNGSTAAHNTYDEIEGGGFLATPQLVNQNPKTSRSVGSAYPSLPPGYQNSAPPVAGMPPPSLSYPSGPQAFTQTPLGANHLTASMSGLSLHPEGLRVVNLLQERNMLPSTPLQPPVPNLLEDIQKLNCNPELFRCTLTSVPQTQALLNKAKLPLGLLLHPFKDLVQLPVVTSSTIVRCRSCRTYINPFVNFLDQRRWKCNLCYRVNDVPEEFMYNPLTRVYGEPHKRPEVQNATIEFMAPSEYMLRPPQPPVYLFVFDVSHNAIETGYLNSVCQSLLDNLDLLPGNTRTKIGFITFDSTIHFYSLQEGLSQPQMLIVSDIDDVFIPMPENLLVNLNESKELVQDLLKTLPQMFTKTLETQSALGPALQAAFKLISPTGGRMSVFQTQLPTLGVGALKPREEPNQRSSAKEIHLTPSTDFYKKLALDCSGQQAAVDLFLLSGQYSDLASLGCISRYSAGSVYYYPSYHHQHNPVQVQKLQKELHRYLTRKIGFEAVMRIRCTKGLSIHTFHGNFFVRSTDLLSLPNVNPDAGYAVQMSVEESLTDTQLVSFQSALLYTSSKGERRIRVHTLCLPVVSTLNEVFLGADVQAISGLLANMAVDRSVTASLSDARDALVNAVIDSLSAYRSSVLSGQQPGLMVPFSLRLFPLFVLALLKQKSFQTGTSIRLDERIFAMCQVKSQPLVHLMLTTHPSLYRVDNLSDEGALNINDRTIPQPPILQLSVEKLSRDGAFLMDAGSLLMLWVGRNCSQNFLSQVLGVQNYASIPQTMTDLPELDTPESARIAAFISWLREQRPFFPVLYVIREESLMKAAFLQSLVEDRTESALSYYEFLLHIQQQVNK
Test: Crosslinking/co-immunoprecipitation/mass spectrometry (TMT quantitative proteomics) to identify irisin receptors
Assay type: binding
Details: co-precipitated protein Sec24a (SC24A_MOUSE)
In short: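 Relative protein abundance came from 6-plex TMT MS3 quantitation on an Orbitrap Fusion Lumos, after in-gel trypsin digestion of Coomassie-stained SDS-PAGE lanes. Input was a Ni-NTA pulldown (250 mM imidazole elution) of lysates from murine MLO-Y4 cells. These cells were treated on ice with His-tagged irisin or adipsin (10 nM, 20 min) in serum-free medium, then crosslinked with 1.5 mM DTSSP for 30 min.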

TMT signal-to-noise ratio: 118.999
Substance: adipsin
